Measurements: patent US20190022179A1 (B G NEGEV TECHNOLOGIES AND APPLICATIONS, published 2019)

B1: peptide SE-11 (SOD1 aa. 90-109) (peptide)
peptide: DKDGVADVSIEDSVISLSGD
notes: Synthesized by GL Biochem; purity >90%
B2: peptide SE-12 (SOD1 aa. 106-125) (peptide)
peptide: LSGDHCIIGRTLVVHEKADD
notes: as for B1

Tests used:
[1] = molecular target: T1, recombinant human SOD1^WT, 6His-tagged (N-term), expressed in E. coli (human, UniProt P00441 2-154, in the MST assay labeled with BLUE fluorescent dye NT-495-NHS (lysine chemistry)); test: MST fluorescence change, labeled SOD1^WT 200 nM
T1 construct: also called wild type SOD1; not shown: N-terminal 6His tag from pHIS1 vector

[2] = molecular target: T2, recombinant human SOD1^G93A, 6His-tagged (N-term), expressed in E. coli (human, UniProt P00441 2-154, G93A, in the MST assay labeled with BLUE fluorescent dye NT-495-NHS (lysine chemistry)); test: MST instrument, fluorescence change of labeled SOD1^G93A (300 nM), peptide 0-100 µM
T2 construct: Dimer by gel filtration, partially monomerizes and precipitates at 37 C; also called SOD1M; not shown: N-terminal 6His tag from pHIS1 vector

[3] = molecular target: T1, recombinant human SOD1^WT, 6His-tagged …; test: MST instrument, fluorescence change of labeled SOD1^WT (200 nM), peptide 0-100 µM
Procedure: Fluorescently labeled recombinant SOD1G93A (300 nM) (FIG. 3A) or SOD1^WT (200 nM) (FIG. 3B) were incubated for 1.5 h at r.t. with increasing concentrations of a peptide, and the fluorescence was measured using an MST instrument (NanoTemper). […] The curves represent the non-linear regression analyses of the data using a logistic (three parameters) function. The results are expressed as the mean±S.D. of at least three independent experiments.
The assessment of peptide binding to the proteins was carried out using Monolith NT.115 (NanoTemper Technologies, Munchen, Germany). […] The final concentration of either DMSO or DMF in the binding buffer was 1%. […] The binding data were analyzed by a non-linear regression using a logistic (three parameter) function implemented in Prism6 (GraphPad) program.
The binding of synthetic peptides to fluorescently labeled SOD1^WT or SOD1^G93A was assessed using a microscale thermophoresis technique (MST).

T1 sequence (P00441 2-154): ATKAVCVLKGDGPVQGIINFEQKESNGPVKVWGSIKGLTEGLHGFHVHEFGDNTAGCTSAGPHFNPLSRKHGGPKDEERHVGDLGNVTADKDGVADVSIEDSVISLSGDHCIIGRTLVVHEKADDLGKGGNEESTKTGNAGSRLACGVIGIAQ
T2 sequence (P00441 2-154 G94A): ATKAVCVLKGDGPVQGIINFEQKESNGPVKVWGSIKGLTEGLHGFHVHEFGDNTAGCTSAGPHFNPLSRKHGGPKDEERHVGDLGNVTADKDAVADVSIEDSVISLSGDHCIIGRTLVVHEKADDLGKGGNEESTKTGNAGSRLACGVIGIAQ

Row | Binder | binding result [1] | binding result [2] | binding result [3]
1 | B1 | no binding (tested: peptide 0-100 µM) | binds | 
2 | B2 |  | binds | binds
